{"source": "the nanobody polyreactivity screen of Harvey et al. (2022)"}
{"test": "yeast display, Sf9 membrane polyspecificity reagent, FACS + sequencing; frameworks hold sequencing errors", "procedure,_shortened": "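In a synthetic yeast display library (Saccharomyces cerevisiae BJ5465), nanobody expression was induced with galactose for 36–48 hours. FACS gates were set low and high (top ~1%) using anti-HA fluorescence for expression and streptavidin fluorescence for binding of the Sf9 membrane reagent. Each polyreactivity label is drawn from the gate of origin.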"}
{"sequence": "QVQLVETGGGLVQAGGSLRVSCAASGSTFSGYAMGWYRQAPGKERELVAAITRSGGRTYYADSVKGRFTISRDNAKNTVYLQMNSLLPEDTAVYYCATDRAYYHSYGRFGYWGQGTHVTVSS", "polyreactivity (PSR sort gate)": "high polyreactivity"}
{"sequence": "QVQLEESGGGLVQAGGSLRLSCAASGSIFGAYALGWYRQAPGKERELVAAISSSVDRTYYADSVKGRFTISRDNAKNTVYLQMNSLKPEDTAVYYCAARWGTRDRTKYYYWGQGTQVTVSS", "polyreactivity (PSR sort gate)": "high polyreactivity"}
{"sequence": "QVQLVESGGGLVQAGGSLRLSCAASGRTFRSYTMGWYRQAPGKERELVARISSSGGRTYYADSVKGRFTISRDNAKNTVYLQMNSLKPEDTAVYYCAAAIVSYGRNDYWGQGTQVTVSS", "polyreactivity (PSR sort gate)": "high polyreactivity"}
{"sequence": "QVQLVESGGGLVQAGGSLRLSCAASGSTFYYYAMGWYRQAPGKERELVAAINSSGGNTYYADSVKGRFTISRDNAKNTVYLQMNSLKPEDTAVYYCATGQIAYSSYGPFDYWGQGTQVTVSS", "polyreactivity (PSR sort gate)": "low polyreactivity"}
{"sequence": "QVQLVESGGGLVQAGGSLRLSCAASGFIFIYNAMGWYRQAPGKERELVAAITGSDGGTFYADSVKGRFTISRDNAKNTVYLQMNSLKPEDTAVYYCNADIVGFQWGYDYWGQGTQVTVSS", "polyreactivity (PSR sort gate)": "low polyreactivity"}
{"sequence": "QVQLVESGGGLVQAGGSLRLSCAASGNTFYWNAMGWYRQAPGKERELVAAITSSGGSTYYADSVKGRITISRDNAKNTVYLQMNSLKPEDTAVYYCNKDIERYVRIYDSWGQGTQVTVSS", "polyreactivity (PSR sort gate)": "low polyreactivity"}
{"sequence": "QVQLVESGVGLVQAGCSLRLSCAASGFTNAMGWYRQAPGKERELVAAISYSGDSTNYADSLKGRFTISRDNAKNTVYLQMNSMKPVDTAVYYCNASSPYDYDWGQGTQVTVSS", "polyreactivity (PSR sort gate)": "low polyreactivity"}
{"sequence": "QVQLVESGGGLVQAGGSLRLSCAASGSIFTIYAMGWYRQAPGKERELVAAISFSGGSTYYADSVKGRFTISRDNAKNTVYLQMNSLKPEDTAVYYCAADGGFTYDNWGQGTQVTVSS", "polyreactivity (PSR sort gate)": "low polyreactivity"}
{"sequence": "QVQLVESGGGLDQAGGSHRLSCAASGRTFPGNAMGWYRQAPGKERELVAAISWSGSRTYYADSLKGRFTISRDNAKNTVYLHMTRMKPEDTAVYYCNVVVKGAWEYYPYDYWGQGTEVTVSS", "polyreactivity (PSR sort gate)": "high polyreactivity"}
{"sequence": "QVQLVESGGGLVQAGGSLRLICAASGFIMRPYTMGWYRQAPGKERELVAAITSGGRTYYADSVKGRFTISRDNAKNTVYLQMNSLKPEDTAVYYCAALTYYRTVRTFSYPYDYWGQGTQVTVSS", "polyreactivity (PSR sort gate)": "high polyreactivity"}
{"sequence": "QVQLVESGGGLVQAGGSLRLSCAASGITFYVYAMGWYRQAPGKERELVAAISSGSSTYYADSVKGRFTISRDNAKNTVYLQMNSLKPEDTAVYYCAARYRKYLSEYWGQGTQVTVSS", "polyreactivity (PSR sort gate)": "high polyreactivity"}
{"sequence": "QVQLVESGGGLVQAGGSLRLSCAASGRTFYPYVMGWYRQAPGKEREFVAAISGTGGSTYYADSVKGRFTISRDNAKNTVYLQMNSLKPEDTAVYYCNRRIPYTSYSYGYWGQGTQVTVSS", "polyreactivity (PSR sort gate)": "high polyreactivity"}
{"sequence": "QVQLVESGGGLVQAGGSLRISCAASGSIFGYYVMGWYRQAPGKERELVAAITGSVGDTYYADSVKGRFTISRDNAKNTVYLQMNSLKPVDTAVYYCNASNISPFRLLRSPMDYCGQGTQVTVSS", "polyreactivity (PSR sort gate)": "low polyreactivity"}
{"sequence": "QFQLVESGGGLVQAGGSLRLSCAASGSISDIYAMGWYRQAPGKERELVASISSGGITNYADSVKGRFTISRDNAKNTVYLQMNSLKPEDTAVYYCAKDRYHISFFYQMEYWGQGTQVTVSS", "polyreactivity (PSR sort gate)": "low polyreactivity"}
{"sequence": "QVQLVESGGGLVQAGGSLRLTCAASGRISKIYAMGWYRQAPGKERELVAAINSGGSTNYADSVKGRFTISRDNAKNTVYLQMNSLKPEDTAVYYCAATFKSGMDFWGQGTQVTVSS", "polyreactivity (PSR sort gate)": "high polyreactivity"}
{"sequence": "QVQLVESGGGLVQAGGSLRLSCAASGRIFYRYAMGWYRQAPGKEMELVASITRSGITHYADSVKGRFTISRDNAKNTVYLQKNSLKPEDTEVYYCNARRGSPAPYDYWGQGTQVTVSS", "polyreactivity (PSR sort gate)": "high polyreactivity"}
{"sequence": "QVQLVESGGGLVQAGGSLRLSCAASGSIFGYNAMGWYRPAPGKERELVAAISRSGGSTYYADSVKGRFTISRDNAKNTVYLQMNSLKPEDTAVSYCATGYYGYRYGYWGQGTQVTVSS", "polyreactivity (PSR sort gate)": "high polyreactivity"}
